For 2 substances, stoichiometry N results are on record in paper PMC10700143.

The target of assay [1] is HKU1-A spike protein ectodomain (strain Caen1), trimeric, furin cleavage site mutated, with GCN4 trimerization motif (human coronavirus HKU1 (serotype A, strain Caen1)). Nature of the assay: cryo-EM structure; 3 µM wild-type or W89A spike trimer with 300 µM 9-O-acetylated disialoside, incubated at room temperature for about 10 min before vitrification; single-particle analysis.

For assay [2] the target is unchanged. Put plainly: cryo-EM structure; apo: 4.3 µM HKU1 spike trimer without ligand, applied to grids at 4 °C; single-particle analysis, C3 symmetry imposed.
In assay [3] the target is W89A mutant HKU1-A spike protein ectodomain (human coronavirus HKU1 (serotype A)). Put plainly: cryo-EM structure; 3 µM wild-type or W89A spike trimer with 300 µM 9-O-acetylated disialoside, incubated at room temperature for about 10 min before vitrification; single-particle analysis.

Broadly, the stoichiometry N is a count of units in the complex or per binding partner. With “HKU1-A spike protein ectodomain (strain Caen1), trimeric, furin cleavage site mutated, with GCN4 trimerization motif (domain or fragment)”, the stoichiometry N in assay [1] and in assay [2] was 3 in each case.
For “W89A mutant HKU1-A spike protein ectodomain (domain or fragment)”, in assay [3], the stoichiometry N is 3.
